Test results as given in patent US20230087785A1, “Leucine-Rich Repeat Kinase 2 Allosteric Modulators” (VIB VZW, priority 2020, published 2023).
Where a chain is given by its changes, count along the chain named.

T1: LRRK2 RocCOR domain construct (human, UniProt Q5S007 1334-1840)
T1 construct: A second construct (residues 1293-1840, N-terminal His6-MBP) was used in certain screening experiments; not shown: N-terminal Twin-Strep-tag; C-terminal His10-tag
T1 sequence: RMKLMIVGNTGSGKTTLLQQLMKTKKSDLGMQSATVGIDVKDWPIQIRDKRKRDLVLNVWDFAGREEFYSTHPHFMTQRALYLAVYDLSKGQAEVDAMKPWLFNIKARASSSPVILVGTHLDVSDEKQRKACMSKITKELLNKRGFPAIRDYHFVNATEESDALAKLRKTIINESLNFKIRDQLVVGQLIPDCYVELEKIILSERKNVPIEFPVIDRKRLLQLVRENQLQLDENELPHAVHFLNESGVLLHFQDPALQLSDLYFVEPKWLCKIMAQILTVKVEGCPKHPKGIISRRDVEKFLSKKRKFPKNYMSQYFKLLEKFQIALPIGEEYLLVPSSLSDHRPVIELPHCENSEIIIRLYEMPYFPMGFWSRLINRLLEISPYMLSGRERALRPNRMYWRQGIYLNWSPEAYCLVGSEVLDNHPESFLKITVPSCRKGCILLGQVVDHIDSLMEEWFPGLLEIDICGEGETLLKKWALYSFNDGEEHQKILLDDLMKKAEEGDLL

T2: LRRK2 Roc domain construct (human, UniProt Q5S007 1329-1520)
T2 construct: not shown: N-terminal His6-tag of pET-28a
T2 sequence: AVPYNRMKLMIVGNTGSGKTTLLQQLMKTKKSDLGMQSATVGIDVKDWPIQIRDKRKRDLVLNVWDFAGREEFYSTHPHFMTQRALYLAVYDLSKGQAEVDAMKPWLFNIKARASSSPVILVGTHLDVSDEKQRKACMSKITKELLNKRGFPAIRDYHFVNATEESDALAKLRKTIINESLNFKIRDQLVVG

B1: Nb10 (CA13599) (VHH)
VHH: QVQLVESGGGLVQPGGSLRLSCAASGSIFSIYAMGWYRQAPGKQRELVAAITSGGDTNYADSVKGRFTISRDNAKNTVYLQMNSLKPEDTAVYYCNADHTPAGTFQTFDYWGQGTQVTVSS
B2: Nb13 (CA13602) (VHH)
VHH: QVQLVESGGGLVQPGGSLRLSCAASGSGFSIYAMGWARQAPGRQRELVAAITSGGSTNYADSVKGRFTISRDNAKNTVYLQMNSLKPEDTAVYYCNADITVVAGSTYDYWGQGTQVTVSS
B3: Nb28 (CA13617) (VHH)
VHH: QVQLVESGGGLVQAGGSLRLSCAASGIIFHWYDMDWYRQAPGKQRELVATITTGGRADYADFVKGRFSISRDNAKTTVYLQMNSLKPEDTAVYYCSFQDHVLRRWGQGTQVTVSS
B4: Nb41 (CA14136) (VHH)
VHH: QVQLVESGGGLVQAGGSLRLSCEASVRTFSFYSMGWFRQAPGKEREFVAAIRWTAGSTSYADIVKGRFTISRDNGKNTVVLQMNSLEPEDTGVYYCAAQRGYLVEAASREYDYWGQGTQVTVSS
B5: Nb36: LRRK2-specific Nanobody, SEQ ID NO: 7 (protein)
VHH: MAQVQLVESGGGLVQPGGSLRLSCAASGSIRSITTSAWFRQPPGKQRELVAGISSGTSTNYADSVKGRFTISRDNAKNTVYLQMNSLKPEDTAVYYCHVWISGTWYSGQGTQVTVSS
modifications: Nanobody CA14130
B6: Nb38: LRRK2-specific Nanobody, SEQ ID NO: 8 (protein)
VHH: B5 VHH with T34A, F39Y, S58T, V99A, Y106I
modifications: Nanobody CA14133

Tests used:
[1] = molecular target: T3, LRRK2 COR-B construct (C-terminal part of the COR domain), His6-MBP tagged (human, UniProt Q5S007 1672-1840); assay: ELISA, antigen coated on the plate, purified Nb detected via its EPEA tag
T3 construct: also called (MBP-)COR-B; not shown: N-terminal His6-MBP-tag of pDEST-566
Text: (§1) We recombinantly expressed and purified the RocCOR, Roc, COR-B and kinase-WD40 (K-WD40) domain constructs of LRRK2 (FIG. 7). Subsequently, we performed an ELISA in which all these domain constructs were coated in parallel next to each other in the same ELISA plate, and where we subsequently detected binding of the 42 purified Nbs. […] To enrich in Nbs directed against the Roc domain we specifically included a selection step with either Roc-GTPγS or Roc-GDP.

[2] = molecular target: T1, LRRK2 RocCOR domain construct; assay: as above
Text: as §1

[3] = molecular target: T2, LRRK2 Roc domain construct; assay: as above
Text: as §1

endogenous LRRK2 = molecular target: T4, endogenous LRRK2 (Mus musculus, UniProt Q5S006); assay: Colocalization of GFP-Nbs with endogenous LRRK2 on zymosan-containing phagosomes in RAW264.7 cells; format: cell-based; details: RAW264.7 cells transfected with GFP-Nbs, zymosan 30 mins, fixed cells
T4 construct: endogenous in cells; host or cells: RAW264.7
Procedure: RAW264.7 cells were transfected with GFP-fused Nbs and treated with Zymosan for 30 mins. Recruitment of LRRK2 and Nbs to the phagosomes was analyzed by immunofluorescence. FIG. 16A, images for Nb38, Nb22, Nb23, Nb40, No Nb, or Irrelevant (IRR) Nb treatments; FIG. 16B, images for Nb36, Nb42, Nb17, Nb39, Nb1, and Nb6 treatments. Scale bar=10 μm.
To test whether Nbs can trace and visualize endogenous LRRK2 in fixed cells, we generated green fluorescent protein (GFP)-Nb fusions (fluobodies) as described before. Recently, it was shown that LRRK2 is recruited to phagosomes upon induction of phagocytosis in immune cells. Therefore, RAW264.7 cells were transfected with these fluobodies and treated with killed yeast bioparticles “zymosan” to induce phagocytosis.
RAW264.7 cells (ATCC® SC-6003™) were transfected with peGFP-Nb constructs using JetOPTIMUS (Polyplus transfection) for 24 hrs and then stimulated with Zymosan particles (Sigma Aldrich) for 30 mins ([…]). Immunostaining for LRRK2 was performed as reported before. Briefly, cells fixed with 4% (w/v) paraformaldehyde for 30 min, followed by treatment with 100% EtOH at −20° C. Sampled were permeabilized with PBS/0.5% Triton X-100 and blocked with 3% BSA. Primary antibodies (rabbit anti-LRRK2, c41-2, Abcam and mouse anti-GFP, G6539, Sigma Aldrich) were diluted in PBS containing 3% BSA and 0.5% Triton X-100 and incubated overnight at 4° C. After three 5-min washes with PBS, secondary fluorescently labeled antibodies (anti-rabbit-Alexa fluor 568 and anti-mouse-Alexa fluor 488, Invitrogen) were added in a similar manner to primary antibodies and incubated for 1 hour at room temperature. Cells were washed twice with 1×PBS and mounted with Fluroshield antifade reagent with DAPI (SigmaAldrich). Images were acquired on Zeiss LSM800 confocal laser scanning microscope. Image analysis of z-scan was done using the Zeiss microscope software ZEN.

LRRK2(G2019S) = molecular target: T5, LRRK2(G2019S) (Homo sapiens, UniProt Q5S007, G2019S/M2397T/R50H); assay: In cellulo phospho-Rab / LRRK2 autophosphorylation assay in HEK293T cells; format: cell-based; set-up: key to Functional Group (see FIG. 2d): Group 1: group 1: Nbs that inhibit both LRRK2 autophosphorylation and Rab10 phosphorylation in cells; Group 2: group 2: Nbs that inhibit only Rab10 phosphorylation; Group 3: group 3: Nbs that activate LRRK2 kinase activity; Group 4: group 4: Nbs that have no consistent/clear effect on LRRK2 kinase activity; details: for LRRK2 autophosphorylation at position S1292 / influence on LRRK2 kinase activity compared to the controls / Rab10 phosphorylation at position T72: HEK 293T cells co-expressing LRRK2(G2019S), Rab29 and Nb-GFP; for influence on LRRK2 kinase activity compared to the controls: Western blot; for Functional Group (see FIG. 2d): classification by effect on in cellulo LRRK2(G2019S) kinase activity; for Rab10 phosphorylation at position T72: endogenous Rab10
T5 construct: SF tag (FLAG + Twin-Strep); expressed in transfected cells; host or cells: HEK 293T
Procedure: (FIGS. 2A-2C) LRRK2(G2019S) and its effector Rab29 were overexpressed together with GFP-fused Nbs (“Fluobody”) in HEK293T cells. A negative control, where no Nb is overexpressed (“No Nb”) is also included. […] In rows labeled “pLRRK2”, LRRK2 pS1292 levels are determined by Western Blot using a site-specific anti-pLRRK2(pS1292) antibody (Abcam, ab203181) (shown at different times of development). In the rows labeled “pRAB10”, endogenous pT72-Rab10 levels are determined by Western Blot using the MJFF/Abcam antibody MJF-R21 (Abcam, ab230261) (shown at different times of development). The three lower rows contain controls of LRRK2 (rat anti-LRRK2, 24D8), Fluobody (rat anti-GFP) and Rab10 (rabbit anti-Rab10) expression levels. (FIG. 2D) Based on the results of panels (FIGS. 2A-2C) the Nbs can be divided into 4 functional groups, with group 1: Nbs that inhibit both LRRK2 autophosphorylation and Rab10 phosphorylation in cells; group 2: Nbs that inhibit only Rab10 phosphorylation; group 3: Nbs that activate LRRK2 kinase activity; group 4: Nbs that have no consistent/clear effect on LRRK2 kinase activity.
To assess the influence of the Nbs on LRRK2 kinase activity we monitored two physiologically and disease relevant activities of LRRK2: phosphorylation of the endogenous substrate Rab10 at position T72 and LRRK2 autophosphorylation at position S1292 [25-30]. […] In our cellular assay we thus co-expressed LRRK2(G2019S), Rab29 and the different Nb-GFP fusions in HEK 293T cells (FIG. 2a-c).
HEK 293T cells were cultured in DMEM (supplemented with 10% Fetal Bovine Serum, […] L-Glutamine and 0.5% Pen/Strep). For the assay, the cells were seeded onto six-well plates and transfected at a confluency of 50-70% with the individual Nb-GFP expression constructs, SF-tagged LRRK2(G2019S) and FLAG-HA Rab29 using a self-made polyethylenimine (PEI)-based transfection reagent. After 48 hrs cells were lysed in lysis buffer [30 mM Tris-HCL (pH7.4), 150 mM NaCl, 0.5% Nonident-P40, complete protease inhibitor cocktail, phosphatase inhibitor cocktail II & III (all Sigma)]. Lysates were cleared by centrifugation at 10,000×g and adjusted to a protein concentration of 1 μg/μl in 1× Laemmli Buffer. Samples were subsequently subjected to SDS PAGE and Western Blot analysis to determine LRRK2 pS1292 and Rab10 T72 phosphorylation levels, as described below. Total LRRK2 and Rab10 levels were determined as a reference.
For western blot analysis, protein samples were separated by SDS-PAGE using NuPAGE 10% Bis-Tris gels (Invitrogen) and transferred onto PVDF membranes (Thermo Fisher). To allow simultaneous probing for LRRK2 on the one hand and Rab and the Nb-GFP fusions on the other hand, membranes were cut horizontally at the 140 kDa MW marker band. After blocking non-specific binding sites with 5% non-fat dry milk in TBST (1 h, RT) (25 mM Tris, pH 7.4, 150 mM NaCl, 0.1% Tween-20), membranes were incubated overnight at 4° C. with primary antibodies at dilutions specified below. Phospho-specific antibodies were diluted in TBST/5% BSA (Roth GmbH). Non-phospho-specific antibodies were diluted in TBST/5% non-fat dry milk powder (BioRad). Phospho-Rab10 levels were determined by the site-specific rabbit monoclonal antibody anti-pRAB10([…]) (Abcam, ab230261) and LRRK2 autophosphorylation was determined by the site-specific rabbit monoclonal antibody anti-pLRRK2(pS1292) (Abcam, ab203181), both at a dilution of 1:2,000. Total LRRK2 levels were determined by the in-house rat monoclonal antibody anti-pan-LRRK2 (clone 24D8; 1:10,000). Total Rab10 levels were determined by the rabbit monoclonal antibody anti-RAB10/ERP13424 (Abcam, ab181367) at a dilution of 1:5,000. Nb-GFP fusion proteins were detected using the rat monoclonal antibody anti-GFP (clone 3H9, ChromoTec) at a dilution of 1:2,000. For detection, goat anti-rat IgG or anti-rabbit IgG HRP-coupled secondary antibodies (Jackson ImmunoResearch) were used at a dilution of 1:15,000 in TBST/5% non-fat dry milk powder. […]

T5 sequence (Q5S007 whole entry R50H/G2019S/M2397T): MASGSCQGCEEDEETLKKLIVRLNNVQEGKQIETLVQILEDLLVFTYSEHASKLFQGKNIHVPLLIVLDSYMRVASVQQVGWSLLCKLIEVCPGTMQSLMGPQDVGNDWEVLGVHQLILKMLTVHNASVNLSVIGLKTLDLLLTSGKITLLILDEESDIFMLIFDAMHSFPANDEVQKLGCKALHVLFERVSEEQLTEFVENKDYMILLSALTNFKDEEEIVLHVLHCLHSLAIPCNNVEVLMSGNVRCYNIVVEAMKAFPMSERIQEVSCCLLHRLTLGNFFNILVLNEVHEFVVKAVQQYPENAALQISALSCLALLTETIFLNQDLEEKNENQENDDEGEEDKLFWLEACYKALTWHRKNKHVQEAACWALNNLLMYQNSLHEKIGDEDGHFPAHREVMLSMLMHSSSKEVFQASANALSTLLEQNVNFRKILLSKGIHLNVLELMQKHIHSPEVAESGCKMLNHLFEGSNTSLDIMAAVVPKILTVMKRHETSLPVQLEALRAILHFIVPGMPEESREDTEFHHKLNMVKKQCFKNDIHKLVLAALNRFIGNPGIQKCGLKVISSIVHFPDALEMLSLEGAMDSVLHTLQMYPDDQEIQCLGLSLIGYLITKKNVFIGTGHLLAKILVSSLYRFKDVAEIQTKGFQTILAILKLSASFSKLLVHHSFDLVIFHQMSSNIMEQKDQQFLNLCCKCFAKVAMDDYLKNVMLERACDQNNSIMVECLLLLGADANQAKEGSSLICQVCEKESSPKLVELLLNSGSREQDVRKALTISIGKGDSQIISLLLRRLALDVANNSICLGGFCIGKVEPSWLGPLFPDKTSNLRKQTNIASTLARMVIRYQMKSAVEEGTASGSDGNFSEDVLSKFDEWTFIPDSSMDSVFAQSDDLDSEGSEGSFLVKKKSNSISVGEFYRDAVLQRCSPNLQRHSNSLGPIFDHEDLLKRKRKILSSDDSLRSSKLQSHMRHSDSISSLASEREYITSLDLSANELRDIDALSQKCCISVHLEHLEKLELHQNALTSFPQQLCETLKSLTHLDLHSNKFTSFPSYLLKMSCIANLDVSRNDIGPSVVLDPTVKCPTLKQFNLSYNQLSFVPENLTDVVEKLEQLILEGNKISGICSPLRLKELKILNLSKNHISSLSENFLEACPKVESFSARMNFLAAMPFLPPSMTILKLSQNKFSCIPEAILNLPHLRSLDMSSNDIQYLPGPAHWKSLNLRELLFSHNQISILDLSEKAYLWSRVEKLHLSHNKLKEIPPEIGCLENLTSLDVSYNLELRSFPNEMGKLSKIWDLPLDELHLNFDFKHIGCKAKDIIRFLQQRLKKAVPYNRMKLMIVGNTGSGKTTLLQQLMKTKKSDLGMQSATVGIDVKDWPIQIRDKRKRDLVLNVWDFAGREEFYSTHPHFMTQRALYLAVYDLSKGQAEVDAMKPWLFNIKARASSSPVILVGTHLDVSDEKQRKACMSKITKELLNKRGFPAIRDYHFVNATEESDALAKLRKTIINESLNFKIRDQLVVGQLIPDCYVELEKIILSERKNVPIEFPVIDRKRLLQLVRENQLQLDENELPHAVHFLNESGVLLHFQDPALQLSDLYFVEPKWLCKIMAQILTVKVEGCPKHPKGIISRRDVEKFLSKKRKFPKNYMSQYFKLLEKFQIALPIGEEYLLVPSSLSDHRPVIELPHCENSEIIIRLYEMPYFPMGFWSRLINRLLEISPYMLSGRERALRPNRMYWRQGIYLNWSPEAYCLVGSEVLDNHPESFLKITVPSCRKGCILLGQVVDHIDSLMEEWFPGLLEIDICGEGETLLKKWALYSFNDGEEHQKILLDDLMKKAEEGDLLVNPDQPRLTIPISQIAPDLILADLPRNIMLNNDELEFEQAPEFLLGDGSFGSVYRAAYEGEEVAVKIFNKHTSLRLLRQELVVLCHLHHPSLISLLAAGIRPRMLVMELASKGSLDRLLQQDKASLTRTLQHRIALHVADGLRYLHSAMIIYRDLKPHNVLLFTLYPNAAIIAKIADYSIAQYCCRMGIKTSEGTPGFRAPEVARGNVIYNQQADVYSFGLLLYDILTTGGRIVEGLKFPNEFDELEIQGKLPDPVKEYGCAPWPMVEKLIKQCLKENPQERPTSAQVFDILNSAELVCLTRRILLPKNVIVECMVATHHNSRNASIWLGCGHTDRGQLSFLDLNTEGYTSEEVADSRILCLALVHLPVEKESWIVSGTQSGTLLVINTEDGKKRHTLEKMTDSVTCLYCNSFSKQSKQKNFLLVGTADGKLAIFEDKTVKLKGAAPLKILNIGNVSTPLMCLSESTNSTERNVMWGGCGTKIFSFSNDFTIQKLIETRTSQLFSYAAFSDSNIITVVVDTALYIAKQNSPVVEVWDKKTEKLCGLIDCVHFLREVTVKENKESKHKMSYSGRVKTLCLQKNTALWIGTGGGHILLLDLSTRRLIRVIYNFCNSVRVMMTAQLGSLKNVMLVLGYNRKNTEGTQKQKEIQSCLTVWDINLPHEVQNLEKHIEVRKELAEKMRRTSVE
T4 sequence (Q5S006 whole entry): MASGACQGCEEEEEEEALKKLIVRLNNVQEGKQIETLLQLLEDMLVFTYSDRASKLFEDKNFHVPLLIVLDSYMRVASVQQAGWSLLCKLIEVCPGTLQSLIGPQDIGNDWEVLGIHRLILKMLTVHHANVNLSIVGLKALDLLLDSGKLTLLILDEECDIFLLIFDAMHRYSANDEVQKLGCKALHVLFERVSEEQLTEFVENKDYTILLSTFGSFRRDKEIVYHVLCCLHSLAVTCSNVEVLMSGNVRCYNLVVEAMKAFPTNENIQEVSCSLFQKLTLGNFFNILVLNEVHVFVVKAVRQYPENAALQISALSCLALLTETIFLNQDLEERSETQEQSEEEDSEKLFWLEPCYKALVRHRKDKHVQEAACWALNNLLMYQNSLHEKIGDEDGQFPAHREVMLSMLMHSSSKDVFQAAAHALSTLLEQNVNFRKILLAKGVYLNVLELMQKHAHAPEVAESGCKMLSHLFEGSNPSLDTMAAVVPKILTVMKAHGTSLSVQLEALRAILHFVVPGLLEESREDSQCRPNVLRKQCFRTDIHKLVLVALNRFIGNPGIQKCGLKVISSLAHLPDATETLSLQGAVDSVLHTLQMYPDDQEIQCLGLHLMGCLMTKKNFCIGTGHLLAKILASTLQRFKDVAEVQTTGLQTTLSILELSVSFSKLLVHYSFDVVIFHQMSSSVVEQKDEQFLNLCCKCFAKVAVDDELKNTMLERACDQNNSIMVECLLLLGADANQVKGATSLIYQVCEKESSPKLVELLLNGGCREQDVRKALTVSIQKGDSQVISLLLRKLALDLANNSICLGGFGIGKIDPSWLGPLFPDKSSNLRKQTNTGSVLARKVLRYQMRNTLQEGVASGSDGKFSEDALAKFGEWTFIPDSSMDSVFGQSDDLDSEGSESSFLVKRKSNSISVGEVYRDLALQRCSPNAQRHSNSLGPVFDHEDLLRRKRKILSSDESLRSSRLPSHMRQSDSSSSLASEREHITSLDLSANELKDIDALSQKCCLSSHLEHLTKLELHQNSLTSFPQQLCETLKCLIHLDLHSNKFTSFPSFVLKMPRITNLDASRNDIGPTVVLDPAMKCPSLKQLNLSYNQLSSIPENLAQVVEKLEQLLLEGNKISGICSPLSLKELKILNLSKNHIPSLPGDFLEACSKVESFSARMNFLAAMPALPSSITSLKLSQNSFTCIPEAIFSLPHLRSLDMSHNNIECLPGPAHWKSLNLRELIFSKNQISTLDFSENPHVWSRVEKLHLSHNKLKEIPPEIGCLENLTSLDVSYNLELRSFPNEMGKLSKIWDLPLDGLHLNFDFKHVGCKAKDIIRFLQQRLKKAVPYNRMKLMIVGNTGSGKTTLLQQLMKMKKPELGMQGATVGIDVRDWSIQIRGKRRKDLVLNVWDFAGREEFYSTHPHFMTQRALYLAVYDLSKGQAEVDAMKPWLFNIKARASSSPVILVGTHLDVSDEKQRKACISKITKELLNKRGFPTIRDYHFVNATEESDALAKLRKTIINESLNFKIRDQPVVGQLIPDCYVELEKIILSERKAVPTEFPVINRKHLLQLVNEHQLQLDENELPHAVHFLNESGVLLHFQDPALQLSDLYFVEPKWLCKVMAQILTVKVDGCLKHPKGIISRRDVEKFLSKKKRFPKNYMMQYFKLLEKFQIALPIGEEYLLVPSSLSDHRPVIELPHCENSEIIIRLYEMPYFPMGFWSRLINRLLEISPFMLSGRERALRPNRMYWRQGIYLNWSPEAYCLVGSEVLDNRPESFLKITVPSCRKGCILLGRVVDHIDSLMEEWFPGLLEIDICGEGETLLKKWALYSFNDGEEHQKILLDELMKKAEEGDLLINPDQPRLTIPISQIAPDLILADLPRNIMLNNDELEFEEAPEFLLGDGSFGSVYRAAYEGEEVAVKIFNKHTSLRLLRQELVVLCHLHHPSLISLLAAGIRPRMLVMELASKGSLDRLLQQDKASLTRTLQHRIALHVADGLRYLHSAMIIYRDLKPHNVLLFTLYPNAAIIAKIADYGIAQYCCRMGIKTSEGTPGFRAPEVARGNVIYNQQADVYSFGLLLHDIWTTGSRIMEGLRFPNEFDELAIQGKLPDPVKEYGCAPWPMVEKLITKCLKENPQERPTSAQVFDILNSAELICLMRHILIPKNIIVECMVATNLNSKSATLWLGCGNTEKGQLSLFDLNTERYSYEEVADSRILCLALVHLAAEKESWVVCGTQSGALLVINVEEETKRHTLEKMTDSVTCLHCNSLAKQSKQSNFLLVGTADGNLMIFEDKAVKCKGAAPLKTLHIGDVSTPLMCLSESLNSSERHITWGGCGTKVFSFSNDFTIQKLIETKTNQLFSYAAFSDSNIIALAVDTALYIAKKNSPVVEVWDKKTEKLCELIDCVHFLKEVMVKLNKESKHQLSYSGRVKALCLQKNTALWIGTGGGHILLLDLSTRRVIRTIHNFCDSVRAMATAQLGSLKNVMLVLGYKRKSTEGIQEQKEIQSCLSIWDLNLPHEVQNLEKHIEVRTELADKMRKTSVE

Row | Molecule | binding result [1] | binding result [2] | binding result [3] | colocalization with endogenous LRRK2 on phagosomes (endogenous LRRK2) | LRRK2 autophosphorylation at position S1292 (LRRK2(G2019S)) | influence on LRRK2 kinase activity compared to the controls (LRRK2(G2019S)) | Functional Group (see FIG. 2d) (LRRK2(G2019S)) | Rab10 phosphorylation at position T72 (LRRK2(G2019S))
1 | B1 | no binding (tested: not given) | no binding (tested: not given) | no binding (tested: not given) |  |  |  |  | 
2 | B2 | no binding (tested: not given) | no binding (tested: not given) | no binding (tested: not given) |  |  |  |  | 
3 | B3 | no binding (tested: not given) | no binding (tested: not given) | no binding (tested: not given) |  |  |  |  | 
4 | B4 | no binding (tested: not given) | no binding (tested: not given) | no binding (tested: not given) |  |  |  |  | 
5 | B5 |  |  |  | did not colocalize with endogenous LRRK2 | inhibiting S1292 phosphorylation at a lesser extent | strongly decreased LRRK2 autophosphorylation and/or Rab10 phosphorylation | Group 2 | inhibit Rab10 phosphorylation
6 | B6 |  |  |  | clearly colocalized with LRRK2 on zymosan-containing phagosomes | inhibiting S1292 phosphorylation at a lesser extent | strongly decreased LRRK2 autophosphorylation and/or Rab10 phosphorylation | Group 2 | inhibit Rab10 phosphorylation
